In the supplement of paper PMC12042874:
± gives the uncertainty stated by the source.

Experiment: amyloid nucleation score (Sup35N fusion, yeast selection) (log enrichment); library NNK3; higher = more nucleation; inactive = no reads after selection
Procedure, shortened: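 Output and input plasmid inserts were sequenced by Illumina after psi-negative yeast carrying Sup35N fused to peptides of 20 random codons had been induced 24 hours with 100 μM copper sulfate and grown 7 days at 30°C on medium lacking adenine and uracil. The nucleation score is the DiMSum log enrichment of output over input reads, centred on the mode score of non-aggregating sequences. Sequences with under 100 input reads were excluded.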
For CTSTAVLGSVLCK, the amyloid nucleation score was “inactive”. With CVCVGDSDYCSQSVCVTSYR the amyloid nucleation score was “inactive”. With CVEIVGMESASCVVMNPLVC the amyloid nucleation score was “inactive”. For CVFDSCSSLYKDMYTLCHVS, the amyloid nucleation score was “inactive”. For CVFLKKPEKMQLLASSFNS, the amyloid nucleation score was “inactive”. With CVFNMLEQ the amyloid nucleation score was “inactive”. CVMGVG showed an amyloid nucleation score of 0.312 ± 0.31. In the case of CVPHRRAIVGFFRGCVNAAS, the amyloid nucleation score is reported as “inactive”. For CVTCLARLHDGPEGIVHLCT, the amyloid nucleation score was “inactive”. In the case of CVVELHHVCRVPMCPFCWTV, the amyloid nucleation score is reported as “inactive”. With CWAPHPKDRKPVRGNYSVHN the amyloid nucleation score was “inactive”. In the case of CWLSWYFATKLGAYWELSNG, the amyloid nucleation score is reported as “inactive”. In the case of CWPESISVVYLQYCAGSMSL, the amyloid nucleation score is reported as “inactive”. In the case of CWPSVMFKISADNSGWFGVD, the amyloid nucleation score is reported as “inactive”. In the case of CWVIVAYTI, the amyloid nucleation score is reported as “inactive”. With CYGALVVQTAYME the amyloid nucleation score was “inactive”. With CYIGCNLEILNRRDKPFIIR the amyloid nucleation score was “inactive”. For CYLGSHSFSAYCGQLFIFSV, the amyloid nucleation score was “inactive”. With CYLVGLCLLFGVQVSGLPYR the amyloid nucleation score was 0.798 ± 0.26. For CYQPRYLSWLKVRDCEDGVY, the amyloid nucleation score was “inactive”. In the case of CYQSLECAIMGYGLYVYSWC, the amyloid nucleation score is reported as “inactive”. With CYSNTLELNDARNCFFNWVR the amyloid nucleation score was “inactive”. In the case of CYVFIEDLTDGMSCRMLFSH, the amyloid nucleation score is reported as “inactive”. Work on CYVWSTALCVNISCGSSTAE yielded an amyloid nucleation score of 2.7 ± 0.054. With CYWPVCYSFGKLQACFYFEI the amyloid nucleation score was “inactive”. With DAIEKD the amyloid nucleation score was “inactive”. In the case of DAKKNLLVGVFCHYRSSQER, the amyloid nucleation score is reported as “inactive”. With DALVSYCWLSNLDTAGKMET the amyloid nucleation score was “inactive”. For DARVVGVLDVRDLAKYFWMA, the amyloid nucleation score was “inactive”. DATDCVRASMFMSFDASRH showed an amyloid nucleation score of 1.29 ± 0.13. With DAWDDNYNASRIGFAYMYSI the amyloid nucleation score was “inactive”. For DCARFILIT, the amyloid nucleation score was “inactive”. In the case of DCFSKRWLHLFANYSSVSTN, the amyloid nucleation score is reported as “inactive”. For DCIRIYQWASLSL, the amyloid nucleation score was “inactive”. With DDAKFVWYVNINYRYMDSRS the amyloid nucleation score was 2.16 ± 0.065. With DDCFIARAFLSLGLPELYLG the amyloid nucleation score was “inactive”. In the case of DDCIKPYSLIYTQRHTPRDI, the amyloid nucleation score is reported as “inactive”. With DDDHKIKLLLSGGL the amyloid nucleation score was “inactive”. In the case of DDGDVNDGRTWFIL, the amyloid nucleation score is reported as “inactive”. For DDSPFLGRFK, the amyloid nucleation score was “inactive”. With DDVTGKMKKIVCVDSHCQLP the amyloid nucleation score was “inactive”. In the case of DERLVYGEKSCRFSLSYANM, the amyloid nucleation score is reported as “inactive”. For DFDAFRFIHVVSWFGFTIYP, the amyloid nucleation score was “inactive”. For DFDILGSDHISWWYGRFDKT, the amyloid nucleation score was “inactive”. In the case of DFGSDSVDRIPRTGADNSI, the amyloid nucleation score is reported as “inactive”. In the case of DFMRVGVTRRALRVLSKSSD, the amyloid nucleation score is reported as “inactive”. With DFNLNEVDTDMGFSLSESL the amyloid nucleation score was “inactive”. For DFNSVVLPNGV, the amyloid nucleation score was “inactive”. In the case of DFRLFFCLYGVYNLRYCFGW, the amyloid nucleation score is reported as “inactive”. With DFYICPCCLSLKKRTMMSCG the amyloid nucleation score was “inactive”. With DGACVSSRLSWGLVYMKKCS the amyloid nucleation score was “inactive”. With DGCGCKWTGACAMLSCHMYL the amyloid nucleation score was 1.41 ± 0.091. For DGDIVDSG, the amyloid nucleation score was -0.616 ± 0.8. In the case of DGDYSWGFVIRCHGPRSWSR, the amyloid nucleation score is reported as “inactive”. With DGFIWAQGLTLIFMRSNMKR the amyloid nucleation score was 2.42 ± 0.055. With DGHMDR the amyloid nucleation score was “inactive”. With DGHWVALREKSFSNQYRSET the amyloid nucleation score was “inactive”. Substance DGRSFAVDAIVYCHLYR has an amyloid nucleation score of 0.758 ± 0.11. With DGVLNRSNDHPVQTPWPWFW the amyloid nucleation score was “inactive”. With DGWFNQCASESSFKVHHGS the amyloid nucleation score was “inactive”. With DIEMY the amyloid nucleation score was “inactive”. With DIERGFGDSCKNGHFAVGSV the amyloid nucleation score was -0.629 ± 1.1. With DIFVFILMLRTTDSWVLLS the amyloid nucleation score was “inactive”. For DIFVNAV, the amyloid nucleation score was “inactive”.
